This data set has as its target T1, MdWRKY53 (Malus hupehensis (CDS amplified from; …, UniProt A0A498JJJ9 1-351).
T1 sequence: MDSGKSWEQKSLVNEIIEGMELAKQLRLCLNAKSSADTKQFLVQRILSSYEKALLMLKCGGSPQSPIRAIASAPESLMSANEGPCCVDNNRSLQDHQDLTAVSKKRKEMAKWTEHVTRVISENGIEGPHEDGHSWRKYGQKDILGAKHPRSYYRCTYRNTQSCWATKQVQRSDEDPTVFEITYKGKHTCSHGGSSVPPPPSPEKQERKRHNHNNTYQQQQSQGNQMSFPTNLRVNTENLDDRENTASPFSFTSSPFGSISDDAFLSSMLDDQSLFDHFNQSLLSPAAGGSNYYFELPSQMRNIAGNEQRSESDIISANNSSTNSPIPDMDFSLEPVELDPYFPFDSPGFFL
As to the kind of experiment: EMSA; unlabeled competitor reduced the binding; LightShift chemiluminescence EMSA kit (Thermo), manufacturer's instructions; buffer, salt, pH and temperature not stated. The settings on record: protein: recombinant; tags: GST (N-terminal, pGEX6p-1); blunt.

The results in this text go back to publication PMC10579713, “Melatonin enhances KCl salinity tolerance by maintaining K+ homeostasis in Malus hupehensis”.

B1: MdNHX2 promoter W-box probe (dsDNA)
DNA 1: TGCACACGTCTTTCGAAGTTGACCAGATCAGTGTGCTTTGA
DNA 2: TCAAAGCACACTGATCTGGTCAACTTCGAAAGACGTGTGCA
Regarding B1, the binding result is “binds”.

B2: MdGORK1 promoter W-box probe (dsDNA)
DNA 1: TTATGTCACCTTATGTTTTTGACACAATTTTTATAACGTTGACACAG
DNA 2: CTGTGTCAACGTTATAAAAATTGTGTCAAAAACATAAGGTGACATAA
Regarding B2, the binding result was “binds”.
